The values that follow come from PMC11655644, “Cardiocutaneous syndrome is caused by aggregation of iASPP mutants” (Cell Death Discovery, 2024).

Data set [1] concerns the target iASPP CTD N813A Y814A double mutant (human) (UniProt Q8WUF5). The data set is described as follows: ITC; VP-ITC, 12 °C, 25 steps of 10 µl; 450 µM iASPP CT peptides titrated to 30 µM purified ASPP CTDs; 25 mM HEPES pH 7.5, 150 mM NaCl, 500 µM TCEP. (In general: In ITC the heat of successive injections is recorded.)
For data set [2], the target named is iASPP CTD WT (C-terminal domain, AA625-828) (human) (UniProt Q8WUF5). Described as above.
The target in data set [3] is T1, iASPP CTD WT (C-terminal domain, AA625-828) (human, UniProt Q8WUF5 625-828).
T1 construct: iASPP (encoded by PPP1R13L), C-terminal domain with four ankyrin repeats and an SH3 domain, AA625-828 (CTD starting from L625); also called iASPP WT CTD; source: E. coli BL21(DE3) Rosetta, purified (IMAC, TEV cleavage, reverse Ni, HiTrap Q, Superdex 75 SEC); not shown: His10, N-terminal, cleaved
T1 sequence (looked up): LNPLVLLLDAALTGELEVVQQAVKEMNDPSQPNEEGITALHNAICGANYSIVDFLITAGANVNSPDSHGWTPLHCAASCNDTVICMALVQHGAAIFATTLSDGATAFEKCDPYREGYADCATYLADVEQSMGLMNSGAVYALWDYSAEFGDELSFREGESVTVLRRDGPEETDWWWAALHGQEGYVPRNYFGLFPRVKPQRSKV
The data set is described as follows: thermal shift assay; 20 µM CTD with SYPRO Orange and 20 or 40 µM PP1α (AA311-330) peptide in assay buffer; 4 to 99 °C at 0.1 °C/s. Particulars: both partners purified.

The Kd is a measure of binding affinity in units of concentration. High values mean weaker binding, low ones tighter binding. For the molecule “iASPP A620P peptide spanning the sequence around the mutation”, the dissociation constant Kd is 5 µM in data set [1] and 0.135 µM in data set [2].

Regarding “iASPP WT peptide spanning the sequence around A620”, the Kd in data set [1] turned out to be 5 µM; in data set [2] it was 0.743 µM.

B1: PP1α (AA311-330) peptide (peptide, UniProt P62136 311-330, looked up)
peptide: GLNPGGRPITPPRNSAKAKK
notes: PP1α (protein phosphatase 1 catalytic subunit alpha), peptide AA311-330; also called PP1α peptide
Consider B1, for which the “increase of the melting temperature with peptide” value in data set [3] worked out at 10 °C.
